Drawing on the supplement of paper PMC10567573, this text covers protein stability index for 94 variants.

To fix the notation:
B1: BTBD1 (parent)
chain: TSAEIELPDVEPAAFLALLRFLYS
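Note: lentivirally expressed fusions sorted by FACS into six bins by GFP to DsRed ratio, PSI derived from sequencing read proportions per bin multiplied by bin number.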

Variants of B1 are the subject of this data set. Description: protein stability index of a GFP-peptide fusion (GPS, HEK-293T) (PSI 1-6); higher = more stable. The conditions noted are these: c terminus: a fixed tail appended.
On to TSAEIELPDVEPAASLALLRFLYS [F15S], for which the protein stability index came to 2.04.

As to TSAEIELPDVEPAADLALLRFLYS [F15D], the protein stability index was determined as 2.73.

Consider TSAEIELPDVEPAACLALLRFLYS [F15C], for which the protein stability index was determined as 2.3.

Turning to TSAEIELPDVEPAAELALLRFLYS [F15E], the protein stability index worked out at 2.31.

In the case of TSAEIELPDVEPAAILALLRFLYS [F15I], the protein stability index worked out at 1.95.

For TSAEIELPDVEPAANLALLRFLYS [F15N], the protein stability index was 1.98.

With TSAEIELPDVEPAAALALLRFLYS [F15A], the protein stability index was 1.69.

As to TSAEIELPDVEPAAYLALLRFLYS [F15Y], the protein stability index stood at 2.56.

Turning to TSAEIELPDVEPAALLALLRFLYS [F15L], the protein stability index stood at 1.31.

For TSAEIELPDVEPAAWLALLRFLYS [F15W], the protein stability index was found to be 2.89.

As for TSAEIELPDVEPAAPLALLRFLYS [F15P], the protein stability index was 2.6.

TSAEIELPDVEPAATLALLRFLYS [F15T]: the protein stability index is 1.78.

With TSAEIELPDVEPAAQLALLRFLYS [F15Q], the protein stability index stood at 1.83.

Take TSAEIELPDVEPAAHLALLRFLYS [F15H]: the protein stability index was determined as 1.67.

For TSAEIELPDVEPAAKLALLRFLYS [F15K], the protein stability index amounted to 1.71.

On to TSAEIELPDVEPAAVLALLRFLYS [F15V], for which the protein stability index came out at 1.75.

TSAEIELPDVEPAAGLALLRFLYS [F15G]: the protein stability index was determined as 2.23.

With TSAEIELPDVEPAARLALLRFLYS [F15R], the protein stability index worked out at 2.2.

As to TSAEIELPDVEPAAMLALLRFLYS [F15M], the protein stability index was 1.43.

In the case of TSAEIELPDVEPSAFLALLRFLYS [A13S], the protein stability index came to 2.01.

Turning to TSAEIELPDVEPFAFLALLRFLYS [A13F], the protein stability index came to 1.55.

With TSAEIELPDVEPWAFLALLRFLYS [A13W], the protein stability index amounted to 2.18.

On to TSAEIELPDVEPPAFLALLRFLYS [A13P], for which the protein stability index came out at 2.05.

With TSAEIELPDVEPHAFLALLRFLYS [A13H], the protein stability index stood at 2.16.

Turning to TSAEIELPDVEPKAFLALLRFLYS [A13K], the protein stability index came out at 2.43.

As for TSAEIELPDVEPRAFLALLRFLYS [A13R], the protein stability index was determined as 1.73.

Turning to TSAEIELPDVEPQAFLALLRFLYS [A13Q], the protein stability index was found to be 1.76.

As to TSAEIELPDVEPIAFLALLRFLYS [A13I], the protein stability index is 1.8.

Turning to TSAEIELPDVEPMAFLALLRFLYS [A13M], the protein stability index was found to be 2.02.

As for TSAEIELPDVEPVAFLALLRFLYS [A13V], the protein stability index was 2.02.

For TSAEIELPDVEPYAFLALLRFLYS [A13Y], the protein stability index was 1.59.

As to TSAEIELPDVEPGAFLALLRFLYS [A13G], the protein stability index is 1.77.

Consider TSAEIELPDVEPNAFLALLRFLYS [A13N], for which the protein stability index worked out at 2.5.

Consider TSAEIELPDVEPLAFLALLRFLYS [A13L], for which the protein stability index is 1.81.

With TSAEIELPDVEPTAFLALLRFLYS [A13T], the protein stability index came out at 2.17.

For the variant TSAEIELPDVEPAAFLACLRFLYS [L18C], the protein stability index is 1.77.

Regarding TSAEIELPDVEPAAFLAALRFLYS [L18A], the protein stability index was 1.08.

As for TSAEIELPDVEPAAFLVLLRFLYS [A17V], the protein stability index worked out at 1.99.

Consider TSAEIELPDVEPAAFLPLLRFLYS [A17P], for which the protein stability index came out at 1.75.

Take TSAEIELPDVEPAAFLTLLRFLYS [A17T]: the protein stability index worked out at 2.38.

As for TSAEIELPDVEPAAFLNLLRFLYS [A17N], the protein stability index turned out to be 2.06.

Consider TSAEIELPDVEPAAFLKLLRFLYS [A17K], for which the protein stability index worked out at 1.88.

In the case of TSAEIELPDVEPAAFLMLLRFLYS [A17M], the protein stability index turned out to be 1.62.

For the variant TSAEIELPDVEPAAFLHLLRFLYS [A17H], the protein stability index is 1.67.

As to TSAEIELPDVEPAAFLELLRFLYS [A17E], the protein stability index was 2.12.

Take TSAEIELPDVEPAAFLRLLRFLYS [A17R]: the protein stability index turned out to be 2.42.

Regarding TSAEIELPDVEPAAFLYLLRFLYS [A17Y], the protein stability index worked out at 1.98.

Take TSAEIELPDVEPAAFLGLLRFLYS [A17G]: the protein stability index came to 2.27.

Consider TSAEIELPDVEPAAFLFLLRFLYS [A17F], for which the protein stability index was determined as 1.98.

As to TSAEIELPDVEPAAFLCLLRFLYS [A17C], the protein stability index worked out at 1.53.

TSAEIELPDVEPAAFLWLLRFLYS [A17W]: the protein stability index came out at 2.

On to TSAEIELPDVEPAAFLSLLRFLYS [A17S], for which the protein stability index is 1.93.

With TSAEIELPDVEPAAFLDLLRFLYS [A17D], the protein stability index is 1.89.

Consider TSAEIELPDVEPAAFLLLLRFLYS [A17L], for which the protein stability index amounted to 2.04.

As to TSAEIELPDVEPAAFLQLLRFLYS [A17Q], the protein stability index amounted to 1.61.

Turning to TSAEIELPDVEPAAFLILLRFLYS [A17I], the protein stability index was 1.4.

Regarding TSAEIELPDVEPAAFCALLRFLYS [L16C], the protein stability index worked out at 1.99.

Turning to TSAEIELPDVEPAAFNALLRFLYS [L16N], the protein stability index worked out at 2.01.

For the variant TSAEIELPDVEPAAFAALLRFLYS [L16A], the protein stability index was 2.19.

Turning to TSAEIELPDVEPAAFYALLRFLYS [L16Y], the protein stability index was 1.53.

On to TSAEIELPDVEPAAFWALLRFLYS [L16W], for which the protein stability index came to 1.96.

Turning to TSAEIELPDVEPAAFPALLRFLYS [L16P], the protein stability index was 1.94.

Turning to TSAEIELPDVEPAAFHALLRFLYS [L16H], the protein stability index is 1.74.

On to TSAEIELPDVEPAAFTALLRFLYS [L16T], for which the protein stability index was 1.87.

For TSAEIELPDVEPAAFSALLRFLYS [L16S], the protein stability index stood at 1.69.

TSAEIELPDVEPAAFDALLRFLYS [L16D]: the protein stability index was 1.88.

Consider TSAEIELPDVEPAAFRALLRFLYS [L16R], for which the protein stability index worked out at 1.64.

In the case of TSAEIELPDVEPAAFKALLRFLYS [L16K], the protein stability index is 1.47.

Consider TSAEIELPDVEPAAFGALLRFLYS [L16G], for which the protein stability index was 1.64.

For the variant TSAEIELPDVEPAAFMALLRFLYS [L16M], the protein stability index was 1.8.

Turning to TSAEIELPDVEPAAFIALLRFLYS [L16I], the protein stability index came to 1.62.

On to TSAEIELPDVEPAAFFALLRFLYS [L16F], for which the protein stability index is 2.06.

On to TSAEIELPDVEPAAFEALLRFLYS [L16E], for which the protein stability index stood at 2.06.

TSAEIELPDVEPAAFQALLRFLYS [L16Q]: the protein stability index was 2.31.

On to TSAEIELPDVEPAAFVALLRFLYS [L16V], for which the protein stability index turned out to be 1.81.

For the variant TSAEIELPDVEPALFLALLRFLYS [A14L], the protein stability index is 1.4.

On to TSAEIELPDVEPAVFLALLRFLYS [A14V], for which the protein stability index came to 2.28.

As for TSAEIELPDVEPAEFLALLRFLYS [A14E], the protein stability index is 1.66.

On to TSAEIELPDVEPASFLALLRFLYS [A14S], for which the protein stability index was found to be 2.41.

For the variant TSAEIELPDVEPAHFLALLRFLYS [A14H], the protein stability index is 2.04.

Turning to TSAEIELPDVEPAYFLALLRFLYS [A14Y], the protein stability index amounted to 1.8.

As for TSAEIELPDVEPAIFLALLRFLYS [A14I], the protein stability index was determined as 1.72.

As to TSAEIELPDVEPACFLALLRFLYS [A14C], the protein stability index was found to be 1.84.

Consider TSAEIELPDVEPAMFLALLRFLYS [A14M], for which the protein stability index was found to be 1.47.

As to TSAEIELPDVEPATFLALLRFLYS [A14T], the protein stability index turned out to be 1.8.

As for TSAEIELPDVEPANFLALLRFLYS [A14N], the protein stability index worked out at 1.92.

Take TSAEIELPDVEPAFFLALLRFLYS [A14F]: the protein stability index worked out at 1.91.

TSAEIELPDVEPARFLALLRFLYS [A14R]: the protein stability index is 1.87.

For the variant TSAEIELPDVEPAPFLALLRFLYS [A14P], the protein stability index worked out at 2.05.

In the case of TSAEIELPDVEPAKFLALLRFLYS [A14K], the protein stability index was determined as 1.63.

Consider TSAEIELPDVEPAQFLALLRFLYS [A14Q], for which the protein stability index worked out at 1.77.

Regarding TSAEIELPDVEPADFLALLRFLYS [A14D], the protein stability index turned out to be 2.

Consider TSAEIELPDVEPAWFLALLRFLYS [A14W], for which the protein stability index is 2.2.

Turning to TSAEIELPDVEPAGFLALLRFLYS [A14G], the protein stability index worked out at 2.04.
